Measurements published in US20110166036A1.
pKd: −log10 of the molar value.

Target: recombinant human sortilin (human) (UniProt Q99523)
Experiment: SPR (BIAcore), sortilin immobilized on CM5 chip, ApoB 10, 20, 50 nM

Sequence of recombinant human sortilin (human) (Q99523 78-755 limits assumed, form in doubt): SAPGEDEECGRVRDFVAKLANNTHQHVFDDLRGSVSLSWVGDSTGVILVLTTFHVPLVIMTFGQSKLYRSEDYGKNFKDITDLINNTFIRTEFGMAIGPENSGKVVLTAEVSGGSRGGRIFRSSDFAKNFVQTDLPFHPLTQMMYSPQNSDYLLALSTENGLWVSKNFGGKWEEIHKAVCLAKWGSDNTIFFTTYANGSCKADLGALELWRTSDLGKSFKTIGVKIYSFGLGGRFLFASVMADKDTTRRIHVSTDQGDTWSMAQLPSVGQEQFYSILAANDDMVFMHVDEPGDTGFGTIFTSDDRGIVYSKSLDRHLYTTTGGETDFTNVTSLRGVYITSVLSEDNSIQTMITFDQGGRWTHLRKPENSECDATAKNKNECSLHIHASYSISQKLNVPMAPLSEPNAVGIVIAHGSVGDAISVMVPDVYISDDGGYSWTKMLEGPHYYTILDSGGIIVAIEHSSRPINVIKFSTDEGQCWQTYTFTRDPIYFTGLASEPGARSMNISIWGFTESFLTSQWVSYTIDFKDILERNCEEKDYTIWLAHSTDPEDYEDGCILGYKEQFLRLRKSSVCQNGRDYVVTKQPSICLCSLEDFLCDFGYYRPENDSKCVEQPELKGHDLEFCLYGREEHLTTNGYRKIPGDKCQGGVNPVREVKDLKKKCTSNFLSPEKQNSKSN

Substance: ApoB (ligand)
- pKd: 9.40
